Experimental findings from publication PMC5231390, “Two-Component Signaling System VgrRS Directly Senses Extracytoplasmic and Intracellular Iron to Control Bacterial Adaptation under Iron Depleted Stress” (PLoS Pathogens, 2016) are described below.

One data set has as its target T1, VgrR (Xanthomonas campestris, UniProt Q7CLQ6).
T1 construct: gene colR; full-length, C-terminal His6, pET30a in E. coli BL21(DE3), Ni-NTA purified
The data set can be described thus: phosphorylation of VgrR seen as raised VgrS affinity in MST. It counts as biochemical. To be noted: phosphodonor; indirect read-out (VgrR-VgrS binding).

Data set [1] has as its target VgrR (Xanthomonas campestris pv. campestris). The data set can be described thus: MST.
Data set [2] deals with phosphorylated VgrR (phosphorylated by acetyl phosphate) (Xanthomonas campestris pv. campestris). The data set can be described thus: MST.
The target of data set [3] is T2, VgrS (full-length, inverted membrane vesicles) (Xanthomonas campestris, UniProt Q8P666).
T2 construct: gene colS
To be noted: 100 μM ATP with 10 μCi [γ-32P]ATP, 5 mM MgCl2, pH 7.8, 28°C, labelled compound.

Data set [4] addresses VgrR (ColR), unphosphorylated (Xanthomonas campestris pv. campestris, UniProt B0RPP4 1-225). Nature of the data set: MST; 10 mM MgCl2; EMSA: 10 mM Tris-HCl pH 7.5, 50 mM KCl, 1 mM DTT, poly(dI-dC), room temp; MST: 50 mM Tris-HCl pH 7.4, 150 mM NaCl, 10 mM MgCl2, 0.05% Tween-20. To be noted: protein: recombinant; tags: C-terminal His6 (pET30a); chain copies: 2; label: 5'-FAM on one strand. (In EMSA bound probe runs differently from free probe, usually more slowly.)

Consider `CC(=O)OP(=O)(O)O` [acetyl phosphate], for which the “phosphorylation of VgrR seen as raised VgrS affinity in MST” value on VgrR is recorded as “Phosphorylation of VgrR by acetyl phosphate significantly increased the VgrR-VgrS binding affinity”.

In general, Kd refers to the concentration at which binding is half-saturated. For the molecule “VgrS, membrane-embedded, full-length (receptor)”, the Kd came out at 4300 nM in data set [1] and 260 nM in data set [2]. As to `Nc1ncnc2c1ncn2[C@@H]1O[C@H](COP(=O)(O)OP(=O)(O)OP(=O)(O)O)[C@@H](O)[C@H]1O` [ATP], in data set [3], the “in vitro autophosphorylation, SDS-PAGE autoradiography” value is “VgrS has an autokinase activity by phosphorylating itself in the presence of ATP”.

B1: PtdvA 50 bp, 5'-FAM (MST) (dsDNA)
DNA 1: GCCCGATTTCACGTCTTTCTTCTTTTTCATTAACGGGACTTTAATTCCTG
DNA 2: CAGGAATTAAAGTCCCGTTAATGAAAAAGAAGAAAGACGTGAAATCGGGC
For B1, the Kd in data set [4] was found to be 189 ± 6.22 nM.
